Reference: article PMC5473844, “Structural and Biochemical Characterization of Poly-ADP-ribose Polymerase from Trypanosoma brucei”

Key:
TBP-NW = target: T1, TBP-NW (Trypanosoma brucei, UniProt Q0PW89 1-197); assay: EMSA; FP: 10 mM HEPES pH 8, 0.1 mM TCEP, 0.1 mM EDTA, 175 mM NaCl, 25 C, 5 nM DNA (250 nM for stoichiometry); EMSA: 50 mM Tris pH 7, 0.1 mM TCEP, 0.1 mM EDTA, 5% glycerol, 100 mM NaCl, room temperature, 0.5 uM DNA; details: protein: recombinant; tags: 6xHis-thioredoxin tag removed with TEV; blunt
T1 sequence: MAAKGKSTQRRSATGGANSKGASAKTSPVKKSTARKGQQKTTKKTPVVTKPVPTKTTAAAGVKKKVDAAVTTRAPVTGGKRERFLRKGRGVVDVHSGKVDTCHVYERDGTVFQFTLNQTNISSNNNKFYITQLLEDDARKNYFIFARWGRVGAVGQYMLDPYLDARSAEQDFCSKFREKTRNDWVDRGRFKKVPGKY

[1] = target: T2, TBP-FL (TbPARP full-length) (Trypanosoma brucei, UniProt Q0PW89 1-573); assay: as above; details: protein: recombinant; tags: 6xHis-thioredoxin tag removed with TEV; blunt
T2 sequence: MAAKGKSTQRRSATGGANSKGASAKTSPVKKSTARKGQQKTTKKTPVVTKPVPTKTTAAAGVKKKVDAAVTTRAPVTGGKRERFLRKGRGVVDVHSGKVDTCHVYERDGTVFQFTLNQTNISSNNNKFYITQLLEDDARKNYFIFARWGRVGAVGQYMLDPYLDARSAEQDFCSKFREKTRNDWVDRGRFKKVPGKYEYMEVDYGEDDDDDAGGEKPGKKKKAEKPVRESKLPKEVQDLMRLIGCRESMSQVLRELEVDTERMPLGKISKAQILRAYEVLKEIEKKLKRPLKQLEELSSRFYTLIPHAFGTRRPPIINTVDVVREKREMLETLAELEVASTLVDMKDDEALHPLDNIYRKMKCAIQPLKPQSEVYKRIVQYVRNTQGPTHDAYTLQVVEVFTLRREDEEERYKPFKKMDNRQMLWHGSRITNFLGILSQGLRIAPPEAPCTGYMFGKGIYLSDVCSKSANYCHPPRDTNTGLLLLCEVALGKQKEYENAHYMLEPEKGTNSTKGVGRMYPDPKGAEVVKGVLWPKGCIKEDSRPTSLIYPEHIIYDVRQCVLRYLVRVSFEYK

TBP-N = target: T3, TBP-N (Trypanosoma brucei, UniProt Q0PW89 1-100); assay: as above; details: protein: recombinant; tags: 6xHis tag removed with TEV; blunt
T3 sequence: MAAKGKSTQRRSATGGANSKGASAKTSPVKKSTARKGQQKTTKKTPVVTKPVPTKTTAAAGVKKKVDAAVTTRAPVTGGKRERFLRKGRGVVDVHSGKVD

[2] = target: T2, TBP-FL (TbPARP full-length); assay: fluorescence polarization (stoichiometry); 50 mM NaCl; non-specific, no clear inflection; FP: 10 mM HEPES pH 8, 0.1 mM TCEP, 0.1 mM EDTA, 175 mM NaCl, 25 C, 5 nM DNA (250 nM for stoichiometry); EMSA: 50 mM Tris pH 7, 0.1 mM TCEP, 0.1 mM EDTA, 5% glycerol, 100 mM NaCl, room temperature, 0.5 uM DNA; details: protein: recombinant; tags: 6xHis-thioredoxin tag removed with TEV; label: 5' FAM on strand 1; blunt
[3] = target: T2, TBP-FL (TbPARP full-length); assay: fluorescence polarization; low nanomolar affinity (value only in figure); 1:1; FP: 10 mM HEPES pH 8, 0.1 mM TCEP, 0.1 mM EDTA, 175 mM NaCl, 25 C, 5 nM DNA (250 nM for stoichiometry); EMSA: 50 mM Tris pH 7, 0.1 mM TCEP, 0.1 mM EDTA, 5% glycerol, 100 mM NaCl, room temperature, 0.5 uM DNA; details: protein: recombinant; tags: 6xHis-thioredoxin tag removed with TEV; label: 5' FAM; single strand
[4] = target: T2, TBP-FL (TbPARP full-length); assay: SEC-SAXS; 1:1 complex, non-activating DNA; FP: 10 mM HEPES pH 8, 0.1 mM TCEP, 0.1 mM EDTA, 175 mM NaCl, 25 C, 5 nM DNA (250 nM for stoichiometry); EMSA: 50 mM Tris pH 7, 0.1 mM TCEP, 0.1 mM EDTA, 5% glycerol, 100 mM NaCl, room temperature, 0.5 uM DNA; details: protein: recombinant; tags: 6xHis-thioredoxin tag removed with TEV; hairpin, 28 bp stem, TTTT loop, 3' overhang 4 nt
[5] = target: T2, TBP-FL (TbPARP full-length); assay: SEC-SAXS; 2:1 protein:DNA complex, activating DNA; FP: 10 mM HEPES pH 8, 0.1 mM TCEP, 0.1 mM EDTA, 175 mM NaCl, 25 C, 5 nM DNA (250 nM for stoichiometry); EMSA: 50 mM Tris pH 7, 0.1 mM TCEP, 0.1 mM EDTA, 5% glycerol, 100 mM NaCl, room temperature, 0.5 uM DNA; details: protein: recombinant; tags: 6xHis-thioredoxin tag removed with TEV; hairpin, 28 bp stem, TTTT loop, 3' overhang 4 nt
[6] = target: T2, TBP-FL (TbPARP full-length); assay: EMSA; higher protein needed for full supershift; FP: 10 mM HEPES pH 8, 0.1 mM TCEP, 0.1 mM EDTA, 175 mM NaCl, 25 C, 5 nM DNA (250 nM for stoichiometry); EMSA: 50 mM Tris pH 7, 0.1 mM TCEP, 0.1 mM EDTA, 5% glycerol, 100 mM NaCl, room temperature, 0.5 uM DNA; details: protein: recombinant; tags: 6xHis-thioredoxin tag removed with TEV; 3' overhang 4 nt (TCGA) on strand 1, other end blunt

B1: template 1 (dsDNA)
DNA 1: CCAGGACCAGGGCGCAGATCACCTTGTTCTCCA
DNA 2: TGGAGAACAAGGTGATCTGCGCCCTGGTCCTGG
B1: binds (TBP-NW); binds [1]; binds (TBP-N).

B2: template 20 (dsDNA)
DNA 1: CAGCAGGTACCTGCCCGGCGCCCAGAGAGGAATGCAACACTC
DNA 2: GAGTGTTGCATTCCTCTCTGGGCGCCGGGCAGGTACCTGCTG
B2: binds [2].

B3: template 21 (ssDNA)
DNA: B2 DNA 1
B3: binds [3].

B4: template 14 (structured_DNA)
DNA: GCTCTAGTGTAGCATGAGCCTTAGCGCGTTTTCGCGCTAAGGCTCATGCTACACTAGAGCTCGA
B4: binds [4].

B5: template 15 (structured_DNA)
DNA: B4 DNA
modifications: 5' phosphate
B5: binds [5].

B6: template 6 (dsDNA)
DNA 1: CGCGCTAAGGCTCATGCTACACTAGAGCTCGA
DNA 2: GCTCTAGTGTAGCATGAGCCTTAGCGCG
modifications: 5' phosphate on strand 2
B6: binds [6].
